According to patent publication US9540654B2, “Synthetic brassica-derived chloroplast transit peptides” (Dow AgroSciences LLC, priority 2012, dated 2017):

Assays:
rice = assay: Postemergence glyphosate tolerance of dgt-28 rice (T0, T1); type: in vivo, Oryza sativa; conditions: following 560 g ae/ha glyphosate used for selection
Experimental: Transplanted rice transformants produced via Agrobacterium transformation were transplanted into media and acclimated to greenhouse conditions. […] Selected T0 events from construct pDAB110828 were treated with 2240 g ae/ha DURANGO DMA™ as previously described and assessed 7 and 14 days after treatment. […] All PCR positive plants were allowed to produce T1 seed for further characterization.
(§1) T1 resistant plants from each event used in the progeny testing were given unique identifiers and sampled for zygosity analyses of the dgt-28 gene. Zygosity data were used to assign 2 hemizygous and 2 homozygous replicates to each rate of glyphosate applied allowing for a total of 4 replicates per treatment. These plants were compared against wildtype kitaake rice. All plants were sprayed with a track sprayer set at 187 L/ha. The plants were sprayed from a range of 560-2240 g ae/ha DURANGO DMA™. All applications were formulated in water with the addition of 2% w/v ammonium sulfate (AMS). Plants were evaluated at 7 and 14 days after treatment. Plants were assigned an injury rating with respect to overall visual stunting, chlorosis, and necrosis. The T1 generation is segregating, so some variable response is expected due to difference in zygosity.

Zea mays B104 = assay: Post-emergence glyphosate tolerance of dgt-28 T0 corn (greenhouse); type: in vivo; conditions: T0 dgt-28 corn plants
Experimental: Zea mays dgt-28 transformation events (T0) were allowed to acclimate in the greenhouse and were grown until plants had transitioned from tissue culture to greenhouse growing conditions (i.e., 2-4 new, normal looking leaves had emerged from the whorl). Plants were grown at 27° C. under 16 hour light:8 hour dark conditions in the greenhouse. The plants were then treated with commercial formulations of DURANGO DMA™ (containing the herbicide glyphosate) with the addition of 2% w/v ammonium-sulfate. Herbicide applications were made with a track sprayer at a spray volume of 187 L/ha, 50-cm spray height. T0 plants were sprayed with a range of glyphosate from 280-4480 g ae/ha glyphosate, which is capable of significant injury to untransformed corn lines. A lethal dose is defined as the rate that causes >95% injury to the B104 inbred.
T0 events of dgt-28 linked with TraP4, TraP5, TraP8 and TraP23 were generated by Agrobacterium transformation and were allowed to acclimate under controlled growth chamber conditions until 2-4 new, normal looking leaves had emerged from the whorl. Plants were assigned individual identification numbers and sampled for copy number analyses of both dgt-28 and aad-1. Based on copy number analyses, plants were selected for protein expression analyses. Plants were transplanted into larger pots with new growing media and grown at 27° C. under 16 hour light:8 hour dark conditions in the greenhouse. Remaining plants that were not sampled for protein expression were then treated with commercial formulations of DURANGO DMA™ (glyphosate) with the addition of 2% w/v ammonium-sulfate. Treatments were distributed so that each grouping of plants contained T0 events of varying copy number. Herbicide applications were made with a track sprayer at a spray volume of 187 L/ha, 50-cm spray height. T0 plants were sprayed with a range of glyphosate from 280-4480 g ae/ha glyphosate capable of significant injury to untransformed corn lines. A lethal dose is defined as the rate that causes >95% injury to the B104 inbred. B104 was the genetic background of the transformants.

[1] = system: Zea mays hybrid 4XP811/B104; assay: Glyphosate tolerance of dgt-28 corn under field conditions; type: in vivo; conditions: corn under field conditions through the reproductive growth stages
Text: Single copy T1 events were sent to a field location to create both hybrid hemizygous and inbred homozygous seed for additional characterization. Hybrid seeds were created by crossing T1 events in the maize transformation line B104 to the inbred line 4XP811 generating hybrid populations segregating 1:1 (hemizygous:null) for the event. The resulting seeds were shipped to 2 separate locations. A total of five single copy events per construct were planted at each location in a randomized complete block design in triplicate. The fields were designed for glyphosate applications to occur at the V4 growth stage and a separate grouping of plants to be applied at the V8 growth stage. The 4XP811/B104 conventional hybrid was used as a negative control.
Experimental rows were treated with 184 g ae/ha ASSURE II™ (106 g ai/L quizalofop-methyl) to eliminate null segregants. All experimental entries segregated 1:1 (sensitive:resistant) (p=0.05) with respect to the ASSURE II™ application. Selected resistant plants were sampled from each event for quantification of the DGT-28 protein by standard ELISA.
Quizalofop-methyl resistant plants were treated with the commercial herbicide DURANGO DMA™ (480 g ae/L glyphosate) with the addition of 2.5% w/v ammonium-sulfate at either the V4 or V8 growth stages. […]

Arabidopsis = assay: dgt-28 as a selectable marker with glyphosate selection; type: in vivo, Arabidopsis thaliana; conditions: 26.25-1680 g ae/ha glyphosate applied 7 and 11 DAP
Experimental: The use of dgt-28 as a selectable marker for glyphosate selection agent is tested with the Arabidopsis transformed plants described above. Approximately 50 T4 generation Arabidopsis seed (homozygous for dgt-28) are spiked into approximately 5,000 wildtype (sensitive to glyphosate) seed. The seeds are germinated and plantlets are sprayed with a selecting dose of glyphosate. Several treatments of glyphosate are compared; each tray of plants receives either one or two application timings of glyphosate in one of the following treatment schemes: 7 DAP (days after planting), 11 DAP, or 7 followed by 11 DAP. Since all plants also contain a glufosinate resistance gene in the same transformation vector, dgt-28 containing plants selected with glyphosate can be directly compared to DSM-2 or pat containing plants selected with glufosinate.
Glyphosate treatments are applied with a DeVilbiss™ spray tip as previously described. Transgenic plants containing dgt-28 are identified as “resistant” or “sensitive” 17 DAP. […] Sensitive and resistant plants are counted and the number of glyphosate tolerant plants is found to correlate with the original number of transgenic seed containing the dgt-28 transgene which are planted.

[2] = system: tobacco (cv. Petit Havana); assay: Postemergence glyphosate tolerance of dgt-28 tobacco (T1, T2); type: in vivo; conditions: tobacco through two generations
Text: as §1, with “Petite havana tobacco.” for “kitaake rice.”, “560-4480” for “560-2240”
Rates of DURANGO DMA™ ranging from 420-3360 g ae/ha glyphosate were applied to 2-3 leaf tobacco as previously described.

B1: DGT-28: EPSP synthase (GENBANK ZP_06917240.1) from Streptomyces sviceus ATCC29083; glyphosate tolerance gene and protein (protein)
chain: MRGMPALSLPGSKSITARALFLAAAADGVTTLVRPLRSDDTEGFAEGLVRLGYRVGRTPDTWQVDGRPQGPAVAEADVYCRDGATTARFLPTLAAAGHGTYRFDASPQMRRRPLLPLSRALRDLGVDLRHEEAEGHHPLTVRAAGVEGGEVTLDAGQSSQYLTALLLLGPLTRQGLRIRVTDLVSAPYVEITLAMMRAFGVEVAREGDVFVVPPGGYRATTYAIEPDASTASYFFAAAALTPGAEVTVPGLGTGALQGDLGFVDVLRRMGAEVSVGADATTVRGTGELRGLTANMRDISDTMPTLAAIAPFASAPVRIEDVANTRVKECDRLEACAENLRRLGVRVATGPDWIEIHPGPATGAQVTSYGDHRIVMSFAVTGLRVPGISFDDPGCVRKTFPGFHEAFAELRRGIGS
rice
  glyphosate rate up to which tolerance was shown: up to 2240 g ae/ha
Zea mays B104
  glyphosate rate up to which tolerance was achieved: up to 4480 g ae/ha
[1]
  glyphosate rate up to which robust tolerance was shown: up to 4480 g ae/ha
Arabidopsis
  selection for transgenic Arabidopsis plants with glyphosate: effective selection
[2]
  glyphosate rate up to which robust tolerance was shown: up to 3360 g ae/ha
